Experimental data taken from EP4624492A1 (Shanghai Hongcheng Biopharmaceutical Co., Ltd., dated 2025).
Numbering of substitutions follows the chain as printed.

B1: 563E10E12_hzH1L0_VLPLL (antibody, human IgG1, kappa)
heavy: EVQLVESGGGLVQPGGSLKLSCAASGFNFNAYAMNWVRQASGKGLEWVGRIRSKSNNFATYYADSVTDRFTISRDDSKNTAYLQMNSLKTEDTAVYYCVRHGRRDLLYSMDFWGQGTTVTVSSASTKGPSVFPLAPSSKSTSGGTAALGCLVKDYFPEPVTVSWNSGALTSGVHTFPAVLQSSGLYSLSSVVTVPSSSLGTQTYICNVNHKPSNTKVDKKVEPKSCDKTHTCPPCPAPELVGGPSVFLLPPKPKDTLMISRTPEVTCVVVDVSHEDPEVKFNWYVDGVEVHNAKTKPPEEQYNSTLRVVSVLTVLHQDWLNGKEYKCKVSNKALPAPIEKTISKAKGQPREPQVYTLPPSRDELTKNQVSLTCLVKGFYPSDIAVEWESNGQPENNYKTTPLVLDSDGSFFLYSKLTVDKSRWQQGNVFSCSVMHEALHNHYTQKSLSLSPGK
light: DIVMTQSPLSLPVTPGEPASISCRSSKSLLHSNGITYLFWYLQKPGQSPQLLIYQMSNLASGVPDRFSGSGSGTDFTLKISRVEAEDVGVYYCAQSLELPLTFGGGTKVEIKRTVAAPSVFIFPPSDEQLKSGTASVVCLLNNFYPREAKVQWKVDNALQSGNSQESVTEQDSKDSTYSLSSTLTLSKADYEKHKVYACEVTHQGLSSPVTKSFNRGEC
B2: 27B9-1G3 (antibody, V domains shown)
VH: EIQLQQSGPELEKPGASVKISCKASGYSFTGYNMNWVKKSNGKSLEWIGNIDPYYGGTNYNQKFKGKATLTVDKSSSTAYMQLKSLTSEDSAVYYCARETWFITTGVIKKGFYFDYWGQGTTLTVSS
VL: EIVLTQSPTTMAASPGEKITLACSASSIISSNYLHWYQQKPGFSPKLLIYRTSSLASGVPARFSGSGSGTSYSLTIGTMEAEDVATYYCQQGSSIPRTFGGGTKLEIK
notes: Murine hybridoma antibody (supernatant or Protein A purified); also called 27B9-1G3 hybridoma antibody
B3: 563E10E12 (antibody, V domains shown)
VH: EVQLIESGGGLVQPKGSLKLSCAASGFNFNAYAMNWVRQAPGKGLEWVARIRSKSNNFATYYADSVTDRFTISRDDSESMLYLQMNNLKTEDTAMYYCVRHGRRDLLYSMDFWGQGTSVTVSS
VL: DVVMTQAAFSNPVTLGTSTSISCRSSKSLLHSNGITYLFWYLQKPGQSPQLLIYQMSNLASGVPDRFSGSGSGTDFTLRISRVEAEDVGVYYCAQSLELPLTFGGGTKLEIK
notes: Murine hybridoma antibody; also called 563E10E12 hybridoma antibody
B4: 569D11B5 (antibody, V domains shown)
VH: B3 VH with N57D, T67K, D68G, S79N, Y82F
VL: B3 VL with V2I, T19A
notes: Murine hybridoma antibody; also called 569D11B5 hybridoma antibody
B5: 589D7C7 (antibody, V domains shown)
VH: B3 VH with I5V, T67K, L81V, Q84E
VL: B3 VL with V2I, T19A, G89A
notes: Murine hybridoma antibody; also called 589D7C7 hybridoma antibody
B6: 559E1B10 (antibody, V domains shown)
VH: KVQLQQSGPVLVKPGASVKMSCKASGYTFTDYYVNWMKQNYGKSPEWIGVINPHNGDTRYNQKFKGKATLTVDKSSSTANMELTSLTSGDSAVYYCASWLRRGYYFDSWGQGTTLTVSS
VL: DIVMTQSPATLSVTPGDRVSLSCRASQSISDYLHWYQQKSHESPRLLLKYVSQSISGIPSRFSGSGSGSDFTLTINSVEPEDVGVYYCQNGHSFPLTFGAGTKLELK
notes: Murine hybridoma antibody; also called 559E1B10 hybridoma antibody
B7: 559E1B10_hIgG1 (antibody)
heavy: not shown
light: DIVMTQSPATLSVTPGDRVSLSCRASQSISDYLHWYQQKSHESPRLLLKYVSQSISGIPSRFSGSGSGSDFTLTINSVEPEDVGVYYCQNGHSFPLTFGAGTKLELKRTVAAPSVFIFPPSDEQLKSGTASVVCLLNNFYPREAKVQWKVDNALQSGNSQESVTEQDSKDSTYSLSSTLTLSKADYEKHKVYACEVTHQGLSSPVTKSFNRGEC
notes: also called hIgG1-subclass chimeric antibody 559E1B10
B8: 559E1B10_hzH2L1_hIgG1 (antibody)
heavy: not shown
light: EIVLTQSPATLSLSPGERATLSCRASQSISDYLHWYQQKPGQAPRLLLKYVSQSISGIPARFSGSGSGTDFTLTISSLEPEDFAVYYCQNGHSFPLTFGGGTKVEIKRTVAAPSVFIFPPSDEQLKSGTASVVCLLNNFYPREAKVQWKVDNALQSGNSQESVTEQDSKDSTYSLSSTLTLSKADYEKHKVYACEVTHQGLSSPVTKSFNRGEC
notes: Humanized, hIgG1/K
B9: 559E1B10_hzH0L1_hIgG1 (antibody)
heavy: not shown
light: B8 light
notes: Humanized, hIgG1/K
B10: 559E1B10_hzH0L2_hIgG1 (antibody)
heavy: not shown
light: B8 light with E1D, L4M
notes: Humanized, hIgG1/K
B11: 559E1B10_hzH1L2_hIgG1 (antibody)
heavy: not shown
light: B8 light with E1D, L4M
notes: Humanized, hIgG1/K
B12: 559E1B10_hzH2L2_hIgG1 (antibody)
heavy: not shown
light: B8 light with E1D, L4M
notes: Humanized, hIgG1/K
B13: 559E1B10_hzH3L0_hIgG1 (antibody, V domains shown)
VH: KVQLVQSGAEVKKPGASVKVSCKASGYTFTDYYVNWVRQAPGQGLEWIGVINPHNGDTRYNQKFKGKATLTVDKSTSTAYMELSSLRSEDTAVYYCASWLRRGYYFDSWGQGTTVTVSS
VL: EIVLTQSPATLSLSPGERATLSCRASQSISDYLHWYQQKPGQAPRLLIYYVSQSISGIPARFSGSGSGTDFTLTISSLEPEDFAVYYCQNGHSFPLTFGGGTKVEIKR
notes: Humanized, hIgG1/K
B14: 559E1B10_hzH3L1_hIgG1 (antibody)
heavy: not shown
light: B8 light
notes: Humanized, hIgG1/K
B15: 559E1B10_hzH3L2_hIgG1 (antibody)
heavy: not shown
light: B8 light with E1D, L4M
notes: Humanized, hIgG1/K
B16: 569D11B5_hIgG1 (antibody)
heavy: not shown
light: B1 light with S7A, P8A, L9F, L11N, P15L, E17T, P18S, K79R, V109L
notes: also called hIgG1-subclass chimeric antibody 569D11B5
B17: 589D7C7_hIgG1 (antibody)
heavy: not shown
light: B1 light with S7A, P8A, L9F, L11N, P15L, E17T, P18S, K79R, G89A, V109L
notes: also called hIgG1-subclass chimeric antibody 589D7C7
B18: 563E10E12_mIgG2a (antibody)
heavy: EVQLIESGGGLVQPKGSLKLSCAASGFNFNAYAMNWVRQAPGKGLEWVARIRSKSNNFATYYADSVTDRFTISRDDSESMLYLQMNNLKTEDTAMYYCVRHGRRDLLYSMDFWGQGTSVTVSSAKTTAPSVYPLAPVCGDTTGSSVTLGCLVKGYFPEPVTLTWNSGSLSSGVHTFPAVLQSDLYTLSSSVTVTSSTWPSQSITCNVAHPASSTKVDKKIEPRGPTIKPCPPCKCPAPNLLGGPSVFIFPPKIKDVLMISLSPIVTCVVVDVSEDDPDVQISWFVNNVEVHTAQTQTHREDYNSTLRVVSALPIQHQDWMSGKEFKCKVNNKDLPAPIERTISKPKGSVRAPQVYVLPPPEEEMTKKQVTLTCMVTDFMPEDIYVEWTNNGKTELNYKNTEPVLDSDGSYFMYSKLRVEKKNWVERNSYSCSVVHEGLHNHHTTKSFSRTPGK
light: DVVMTQAAFSNPVTLGTSTSISCRSSKSLLHSNGITYLFWYLQKPGQSPQLLIYQMSNLASGVPDRFSGSGSGTDFTLRISRVEAEDVGVYYCAQSLELPLTFGGGTKLEIKRADAAPTVSIFPPSSEQLTSGGASVVCFLNNFYPKDINVKWKIDGSERQNGVLNSWTDQDSKDSTYSMSSTLTLTKDEYERHNSYTCEATHKTSTSPIVKSFNRNEC
notes: also called mIgG2a-subclass chimeric antibody 563E10E12

target: T1, human CCR8 (human, UniProt P51685 1-355); assay: cell-based or functional assay

| Binder | EC50 of activation of Jurkat-human FcγRIIIa(158V)-NFAT with 293F-hCCR8 target cells [µg/mL] |
| --- | --- |
| B1 | 0.0017 |

target: T2, cynomolgus CCR8 (cynomolgus monkey); assay: flow cytometry on 293T-cynoCCR8 cells
T2 construct: whole, on cells; the constructs of the cell lines are not tied to it word for word; also called cynoCCR8

| Binder | EC50 [µg/mL] |
| --- | --- |
| B2 | 0.146 |
| B3 | 0.591 |
| B4 | 0.444 |
| B5 | 0.298 |
| B6 | 0.322 |

target: T1, human CCR8; assay: flow cytometry on 293F-hCCR8 cells

| Binder | EC50 [µg/mL] |
| --- | --- |
| B7 | 0.101 |
| B8 | 0.141 |
| B9 | 0.135 |
| B10 | 0.0979 |
| B11 | 0.15 |
| B12 | 0.204 |
| B13 | 0.13 |
| B14 | 0.176 |
| B15 | 0.133 |

target: T1, human CCR8; assay: cell-based or functional assay; remark: another data set of the same source

| Binder | EC50 of activation of Jurkat-human FcγRIIIa(158V)-NFAT with 293F-hCCR8 target cells [µg/mL] |
| --- | --- |
| B7 | 0.0401 |
| B8 | 0.0292 |
| B9 | 0.0305 |
| B10 | 0.0286 |
| B11 | 0.0325 |
| B12 | 0.033 |
| B13 | 0.0985 |
| B14 | 0.028 |
| B15 | 0.0344 |

target: T1, human CCR8; assay: cell-based or functional assay; remark: another data set of the same source

| Binder | IC50 of blockade of CCL1-induced β-arrestin recruitment [µg/mL] |
| --- | --- |
| B7 | 10.2 |
| B8 | 46.5 |
| B9 | 118 |
| B10 | 11.2 |
| B11 | 7.33 |
| B12 | 6.69 |
| B14 | 14.8 |
| B15 | 71.2 |

target: T1, human CCR8; assay: flow cytometry, competition with 10 nM AF647-human CCL1 on 293F-hCCR8 cells

| Binder | IC50 [µg/mL] |
| --- | --- |
| B2 | 0.127 |
| B3 | 0.132 |
| B4 | 0.0882 |
| B5 | 0.075 |
| B6 | 0.0785 |

target: T1, human CCR8; assay: flow cytometry, hybridoma supernatant on CHOK1-hCCR8 cells

| Binder | MFI [MFI] |
| --- | --- |
| B2 | 2660 |
| B3 | 6370 |
| B4 | 5800 |
| B5 | 6120 |
| B6 | 7350 |

target: T1, human CCR8; assay: flow cytometry on 293F-hCCR8 cells; remark: another data set of the same source

| Binder | EC50 [µg/mL] |
| --- | --- |
| B7 | 0.0617 |
| B16 | 0.113 |
| B17 | 0.164 |
| B18 | 0.0833 |

target: T1, human CCR8; assay: cell-based or functional assay; remark: another data set of the same source

| Binder | IC50 of blockade of CCL1-induced β-arrestin recruitment (Tango-H_CCR8-CHO-K1 cells) [µg/mL] |
| --- | --- |
| B18 | 0.902 |

target: T1, human CCR8; assay: flow cytometry, competition with 10 nM AF647-human CCL1 on 293F-hCCR8 cells; remark: another data set of the same source

| Binder | IC50 [µg/mL] |
| --- | --- |
| B7 | 0.0549 |
| B16 | 0.0748 |
| B17 | 0.0526 |
| B18 | 0.0411 |

target: T1, human CCR8; assay: flow cytometry on 293F-hCCR8 cells; remark: another data set of the same source

| Binder | EC50 [µg/mL] |
| --- | --- |
| B2 | 0.15 |
| B3 | 0.195 |
| B4 | 0.159 |
| B5 | 0.361 |
| B6 | 0.107 |

target: T1, human CCR8; assay: cell-based or functional assay; remark: another data set of the same source

| Binder | EC50 of activation of Jurkat-human FcγRIIIa(158V)-NFAT with HuT78 target cells [µg/mL] |
| --- | --- |
| B1 | 0.0117 |

target: T2, cynomolgus CCR8; assay: flow cytometry, hybridoma supernatant on CHOK1-cynoCCR8 cells

| Binder | MFI [MFI] |
| --- | --- |
| B2 | 14000 |
| B3 | 16900 |
| B4 | 13200 |
| B5 | 15200 |
| B6 | 21900 |

target: T1, human CCR8; assay: flow cytometry, competition with 10 nM AF647-human CCL1 on 293F-hCCR8 cells; remark: another data set of the same source

| Binder | IC50 [µg/mL] |
| --- | --- |
| B7 | 0.125 |
| B8 | 0.102 |
| B9 | 0.0438 |
| B10 | 0.0413 |
| B11 | 0.0769 |
| B12 | 0.14 |
| B13 | 0.443 |
| B14 | 0.088 |
| B15 | 0.121 |

target: T2, cynomolgus CCR8; assay: flow cytometry on 293T-cynoCCR8 cells; remark: another data set of the same source

| Binder | EC50 [µg/mL] |
| --- | --- |
| B18 | 0.0664 |
